These results are taken from patent US20090214662A1 (UNIVERSITY OF MARYLAND BALTIMORE, published 2009).

Assay [1] deals with Lactobacillus brevis ATCC 8287 SlpA surface layer protein (Lactobacillus brevis ATCC 8287) (UniProt Q05044). The assay is described as follows: SPR (BIAcore 3000), Kd of laminin compared with Kd of fibronectin on immobilised SlpA. (In SPR one partner is held on a chip, and binding of the other changes the refractive index at the surface.)
The target is the same in assay [2]. The assay is described as follows: SPR (BIAcore 3000), SlpA immobilised on CM5 chip, fibronectin injected, 1:1 Langmuir fit.
The target is the same in assay [3]. The assay is described as follows: SPR (BIAcore 3000), immobilised SlpA preincubated with 1 mM benzamidine, fibronectin injected, steady-state evaluation.
For assay [4] the target is unchanged. The assay is described as follows: SPR (BIAcore 3000), SlpA immobilised on CM5 chip, collagen injected, 1:1 Langmuir fit.
Assay [5] concerns the target T1, Fibrinogen (human plasma) (human, UniProt P02671 20-629; P02675 31-491; P02679 27-453, limits assumed).
T1 construct: mature; Bought from Calbiochem
T1 sequence (looked up) 1: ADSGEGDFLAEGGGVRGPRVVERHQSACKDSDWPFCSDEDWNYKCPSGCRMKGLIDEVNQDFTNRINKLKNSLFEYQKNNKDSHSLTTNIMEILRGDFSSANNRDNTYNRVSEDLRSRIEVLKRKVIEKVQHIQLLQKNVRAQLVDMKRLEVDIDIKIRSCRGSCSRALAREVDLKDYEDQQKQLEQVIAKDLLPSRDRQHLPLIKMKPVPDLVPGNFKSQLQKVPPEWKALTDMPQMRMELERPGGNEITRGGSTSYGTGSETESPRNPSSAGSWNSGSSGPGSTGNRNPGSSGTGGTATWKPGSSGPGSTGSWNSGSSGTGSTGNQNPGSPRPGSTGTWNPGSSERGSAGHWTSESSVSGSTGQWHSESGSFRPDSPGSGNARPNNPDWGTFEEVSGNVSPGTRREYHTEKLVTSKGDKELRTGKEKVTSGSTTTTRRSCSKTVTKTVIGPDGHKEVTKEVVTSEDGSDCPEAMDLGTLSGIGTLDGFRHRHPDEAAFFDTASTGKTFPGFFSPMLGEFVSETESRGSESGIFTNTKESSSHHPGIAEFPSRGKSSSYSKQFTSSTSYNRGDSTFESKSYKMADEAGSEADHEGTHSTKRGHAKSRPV
T1 sequence (looked up) 2: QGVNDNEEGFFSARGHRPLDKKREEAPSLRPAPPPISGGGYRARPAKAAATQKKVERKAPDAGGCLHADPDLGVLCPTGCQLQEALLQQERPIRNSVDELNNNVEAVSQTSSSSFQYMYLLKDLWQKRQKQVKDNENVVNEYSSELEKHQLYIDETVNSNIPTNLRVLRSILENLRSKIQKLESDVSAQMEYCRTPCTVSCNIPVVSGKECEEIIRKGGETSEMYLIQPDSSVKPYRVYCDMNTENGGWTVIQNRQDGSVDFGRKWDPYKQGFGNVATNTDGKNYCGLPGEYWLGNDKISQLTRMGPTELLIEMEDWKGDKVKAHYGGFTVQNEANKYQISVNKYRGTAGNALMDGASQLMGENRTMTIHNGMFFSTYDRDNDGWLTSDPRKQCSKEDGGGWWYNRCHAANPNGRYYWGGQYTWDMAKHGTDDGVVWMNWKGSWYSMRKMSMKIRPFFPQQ
T1 sequence (looked up) 3: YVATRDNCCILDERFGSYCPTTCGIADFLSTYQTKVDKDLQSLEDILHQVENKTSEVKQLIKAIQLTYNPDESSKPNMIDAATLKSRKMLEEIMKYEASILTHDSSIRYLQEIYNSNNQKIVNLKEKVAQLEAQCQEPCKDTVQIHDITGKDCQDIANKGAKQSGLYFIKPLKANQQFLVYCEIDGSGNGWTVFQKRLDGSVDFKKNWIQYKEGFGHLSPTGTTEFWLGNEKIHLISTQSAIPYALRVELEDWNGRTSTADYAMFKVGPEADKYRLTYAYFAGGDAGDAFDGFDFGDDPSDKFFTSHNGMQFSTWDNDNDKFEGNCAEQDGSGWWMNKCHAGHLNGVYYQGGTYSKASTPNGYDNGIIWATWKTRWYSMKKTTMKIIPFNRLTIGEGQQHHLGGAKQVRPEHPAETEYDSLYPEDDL
The assay is described as follows: SPR (BIAcore 3000), SlpA immobilised on CM5 chip, fibrinogen injected; Table 2 value. The protocol:
(§1) The interaction between SlpA and extracellular matrix components was evaluated by surface plasmon resonance on a BIAcore 3000 instrument. Purified SlpA protein in 5M LiCl was dialyzed against double-distilled water overnight. Monomeric and/or oligomeric protein was separated from self-assembled material by centrifugation at 20,000×g for 20 min. SlpA protein (50 ug/ml in 10 mM Sodium Phosphate pH 7.4) was covalently coupled to CM5 carboxylated dextran chips using N-hydroxysuccinimide (NHS) chemistry. […] Kinetic analysis was carried out at 25° C. in 10 mM HEPES, 150 mM NaCl, 3 mM EDTA, 0.005% surfactant P20, pH 7.4. […] Binding was determined experimentally by comparing the number of RU's observed as a function of time to an activated and blocked flow cell containing no linked protein. […] Data were evaluated using the BIAevaluation 4.1 software. The association and dissociation data were modeled with the BIAevaluation 4.1 software (Pharmacia Biosensor AB). Following subtraction of data from the control flow cell, the binding data produced for the various protein concentrations were fitted simultaneously, assuming the 1:1 Langmuir model.
(§2) The association and dissociation rate constants were estimated from the binding data at different concentrations using the BIAevaluation software and from these values the binding constant was calculated (Table 2).

Assay [6] addresses T2, Laminin (basement membrane of Engelbreth-Holm-Swarm mouse sarcoma) (mouse, UniProt P19137 25-3083; P02469 22-1786; P02468 34-1607).
T2 construct: mature; Bought from Sigma
The assay is described as follows: SPR (BIAcore 3000), SlpA immobilised on CM5 chip, laminin injected, 1:1 Langmuir fit. The protocol: as §1, §2

Assay [7] has as its target T2, Laminin (basement membrane of …). The assay is described as follows: SPR (BIAcore 3000), immobilised SlpA preincubated with 1 mM benzamidine, laminin injected, 1:1 Langmuir fit.

“Laminin (basement membrane of Engelbreth-Holm-Swarm mouse sarcoma), P19137 25-3083; P02469 22-1786; P02468 34-1607” registered a fold higher affinity than for fibronectin in assay [1] of 3 fold.
As to “Fibronectin (human plasma) (from UniProt P02751 32-2477)”, the Kd (usually the free concentration of one partner at which half of the binding sites on the other are occupied at equilibrium, for simple one-to-one binding) was found to be 0.0898 µM in assay [2] and 30.1 µM in assay [3]. The koff (commonly the rate constant with which the complex falls apart) in assay [2] came to 0.00632 s⁻¹.
In assay [4], “Collagen (human placenta Type IV) (from UniProt P02462 28-1440; P08572 26-1484)” returned a Kd of 31.8 µM and a koff of 0.0011 s⁻¹.

B1: Lactobacillus brevis ATCC 8287 SlpA surface layer protein (other, UniProt Q05044 31-465, looked up)
chain: KSYATAGAYSTLKTDAATRNVEATGTNALYTKPGTVKGAKVVASKATMAKLASSKKSADYFRAYGVKTTNRGSVYYRVVTMDGKYRGYVYGGKSDTAFAGGIKSAETTTKADMPARTTGFYLTDTSKNTLWTAPKYTQYKASKVSLYGVAKDTKFTVDQAATKTREGSLYYHVTATNGSGISGWIYAGKGFSTTATGTQVLGGLSTDKSVTATNDNSVKIVYRTTDGTQVGSNTWVTSTDGTKAGSKVSDKAADQTALEAYINANKPSGYTVTNPNAADATYGNTVYATVSQAATSKVALKVSGTPVTTALTTADANDKVAANDTTANGSSVAGSTVYAAGTKLAQLTTDLTGEKGQVVTLTAIDTDLEDATFTGTTTYYSDLGKAYHYTYTYNKDSAASSNASTQFGSNVTGTLTATLVMGKSTATANGTTWFN
notes: mature; Native protein purified from the bacterium; The soluble monomeric and/or oligomeric fraction after dialysis and centrifugation was covalently coupled (NHS chemistry) to a CM5 chip, about 1700 RU; also called S-layer protein; Surface Layer Protein A
For the molecule B1, the values for the Kd in assay [5], in assay [6] and in assay [7] were 26.1 µM, 0.0267 µM and 0.066 µM, respectively. Besides, the koff turned out to be 0.0013 s⁻¹ in assay [6] and 0.002 s⁻¹ in assay [7].
